The results in this text go back to the supplement of paper PMC9170038.

The test system of the data set is MS2 coat protein. In words: apparent KD of MS2 coat protein; designed switch direction (-1 OFF switch, 1 ON switch): -1; higher = weaker reporter binding. The method, boiled down:
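RNA switches sharing common flanks were transcribed by stalled E. coli RNA polymerase on Illumina chips. A doubling series of SNAP-549-labelled MS2 coat protein, from 0.7 or 1.5 nM to 3 µM, was applied in Tris-HCl pH 7.5 buffer with KCl, MgCl2, BSA, DTT, tRNA and Tween-20. Each step lasted 0.8–1.5 h at the bottom of the series and 10–20 min at the top. Normalised cluster fluorescence was curve-fitted, giving apparent KD as the per-design median over clusters.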

[1] abbreviates: input ligand: microRNA oligo, concentration not stated.
The mark [2] stands for this setting: Eterna round: R95, input ligand: FMN 200 uM.
The mark [3] stands for this setting: Eterna round: R95, input ligand: microRNA oligo, concentration not stated.
Where [4] appears, read: Eterna round: R95, input ligand: none.

On to “AGAGUGCUGCGAGGAUAUACAUGAGGAUCACCCAUGUUUUCGUGUGAGGCUUUGCCUCACACGAAGUAGAAGGCGCAGUACUCU [Mat - Exclusion NG 2 - Mod of JL - D31] (Eterna round: R96, puzzle: Exclusion NG 2)”, for which the “apparent KD of MS2 coat protein” value amounted to 7.9 nM (input ligand: FMN 200 uM), 8.79 nM under setting [1] and 12.2 nM (input ligand: none).

In the case of “CGCCCUCCGGUGAGGAUAUUGCCCACCAUGGUCGGCAAGAAGGCACUUGAGGAUCACCCAAGUAAAACAAAUAA [Beraus] (Eterna round: R97, puzzle: Brourd's mod of Exclusion 4)”, the “apparent KD of MS2 coat protein” value was 450 nM (input ligand: FMN 200 uM) and 34.8 nM (input ligand: none).

As to “UAAAUGUCAGGAUAUUGUUAAUUUAGUUGUUUGUAUUAGUUCGAGAAGGGACAUGAGGAUCACCCAUGUUAUUU [Ex4 #55] (Eterna round: R97, puzzle: Exclusion 4)”, the “apparent KD of MS2 coat protein” value (input ligand: FMN 200 uM) is 33.6 nM and the “apparent KD of MS2 coat protein” value (input ligand: none) stood at 31.9 nM.

Consider “ACGAUGACCGAAAAGUGUAAACUGACAUGAGGAUCACCCAUGUAGGAUAUGGCUACGAAAAGUAGUCAGAAGGGCAUGUCAUCA [Omei Exc(NG) 3 Av9] (Eterna round: R96, puzzle: Exclusion NG 3)”, for which the “apparent KD of MS2 coat protein” value reads like this: (input ligand: FMN 200 uM) 16 nM; under setting [1], 16.4 nM; (input ligand: none) 20.9 nM.

Take “ACAAGCUUUUUGUUCGUCUUAUAAUAUUCAAUAAAGAUAACAUGAGGAUCACCCAUGUAACAAAGACGGACUCAUGU [Sesor Array 16 - Jieux - Sensor v3, turn-off variant 2] (puzzle: Sensor v3, turn-off variant 2)”: the “apparent KD of MS2 coat protein” value reads like this: under setting [2], 16.5 nM; under setting [3], 267 nM; under setting [4], 12.4 nM.

For “UUUAAGUCAGGAUAUCGUUAAUUUAAUAAAUAAAUUUAAUUCGAGAAGGGACAUGAGGAUCACCCAUGUAAUUU [Ex4 #1] (Eterna round: R97, puzzle: Exclusion 4)”, the “apparent KD of MS2 coat protein” value is 45.5 nM (input ligand: FMN 200 uM) and 34.8 nM (input ligand: none).

As for “GAAAAGGUAGGAUAUACGAAAAAAAAGGGUAGAAGAAAAACACAUGAGGAUCACCCAUGUAGAAGGACCAAAAG [salish99_ex2_r3_022] (puzzle: Exclusion 2)”, the “apparent KD of MS2 coat protein” value under setting [2] turned out to be 107 nM, the “apparent KD of MS2 coat protein” value under setting [3] was found to be 18.6 nM and the “apparent KD of MS2 coat protein” value under setting [4] was 23.5 nM.

Regarding “CCCGUCGAUGUAGGAUAUGCCCGGGUCUCCCGGGCAGAAGGACAUGAGGAUCACCCAUGUUCAUGAGGAUCACCCAUGAAUGGG [Double but mutated MS2] (Eterna round: R96, puzzle: Exclusion NG 1)”, the “apparent KD of MS2 coat protein” value runs as follows: (input ligand: FMN 200 uM) 12.1 nM; under setting [1], 12.1 nM; (input ligand: none) 16.6 nM.

In the case of “GGUACUAACACGAGAGUGUUAGUACUAUAAGCUUGUGUUACAUGAGGAUCACCCAUGUCCUCAUAAGCUCGUCUUAU [Mat - Sensor v3 - Turn-off var 2 - D76] (puzzle: Sensor v3, turn-off variant 2)”, the “apparent KD of MS2 coat protein” value is, setting by setting: under setting [2], 137 nM; under setting [3], 89.6 nM; under setting [4], 156 nM.

As for “GCUUGGCGAGGAUAUACAUGAGGAUCACCCAUGUGAGAAGAAUAAGUGAGGAAGAAAAGUAGAAGGCGCUGAGG [Mat - Exclusion 3 - Mod of Salish D62] (puzzle: Exclusion 3)”, the “apparent KD of MS2 coat protein” value worked out at 56.1 nM under setting [2], 30.4 nM under setting [3] and 37.6 nM under setting [4].

“UGGGUUACAGGAUAUACAUGAGGAUCACCCAUGUCAUGUUUCGUGGCGGAUAGCUCGAGUAGAAGGGUGCAUCC [Diorus] (puzzle: Exclusion 3)”: the “apparent KD of MS2 coat protein” value under setting [3] amounted to 36.6 nM.

Take “GAAAAGGUAGGAUAUACGAAAAAAAAGGGUACAAAAAAAACACAUGAGGAUCACCCAUGUAGAAGGACCAAAAG [salish99_ex2_r3_063] (puzzle: Exclusion 2)”: the “apparent KD of MS2 coat protein” value is 36.8 nM under setting [2], 25.6 nM under setting [3] and 20.8 nM under setting [4].

“UACAUGAGGAUCACCCAUGUUUUGUCGUGUAUGGUAUUUAUCUAGGAUAUCAUUAUAUUUAGUUAUGAGAAGGAGAAUAUUAAU [JMF's solution 82] (Eterna round: R96, puzzle: Exclusion NG 3)”: the “apparent KD of MS2 coat protein” value is 28.1 nM (input ligand: FMN 200 uM), 23.6 nM under setting [1] and 44.6 nM (input ligand: none).

With “ACACACAGAGGAUAUCUUCCGCAUGACAUGAGGAUCACCCAUGUGUGCAUGCCCAAAAGUAGAGAAGGCUGUGUGU [eternacac ex5r4 #3] (Eterna round: R97, puzzle: Exclusion 5)”, the “apparent KD of MS2 coat protein” value (input ligand: FMN 200 uM) was found to be 27.1 nM and the “apparent KD of MS2 coat protein” value (input ligand: none) amounted to 35.6 nM.

As for “GGGCUCACGGUCAGGAUAUGUAAAACGUAAGUAUUAUAGAAGGGACAUGAGGAUCACCCAUGUGUGAUGAGCGC [Eternabot (L1) Solution 37] (Eterna round: R97, puzzle: Brourd's mod of Exclusion 4)”, the “apparent KD of MS2 coat protein” value (input ligand: FMN 200 uM) was 323 nM and the “apparent KD of MS2 coat protein” value (input ligand: none) was 124 nM.

For “CUCAGGUGAGGAUAUGCUUAAGGAUCGGUACACCGACACCUGUAGAAGGCACAUGAGGAUCACCCAUGUUAGGC [Eternabot (L1) Solution 68] (Eterna round: R97, puzzle: Exclusion 4)”, the “apparent KD of MS2 coat protein” value was found to be 30.1 nM (input ligand: FMN 200 uM) and 27.9 nM (input ligand: none).

In the case of “AGAAAGCAAGGAUAUACAAGGAAACGACGGAAAGUAGAGAGACAUGAGGAUCACCCAUGUAGAAGGUGCGAGAA [JR_Exclu2_Sub032] (puzzle: Exclusion 2)”, the “apparent KD of MS2 coat protein” value under setting [2] worked out at 33.8 nM, the “apparent KD of MS2 coat protein” value under setting [3] amounted to 28.7 nM and the “apparent KD of MS2 coat protein” value under setting [4] came to 26.5 nM.

As to “UCAAGUUUUUUGUUUUUUAACAUGAGGAUCACCCAUGUAUUUUUAUAGUAUGUGUGAAUAAGAUCUCUUUGUCUUAU [JR_SV3TOV1_Sub098] (puzzle: Sensor v3, turn-off variant 1)”, the “apparent KD of MS2 coat protein” value reads like this: under setting [2], 46.6 nM; under setting [3], 149 nM; under setting [4], 49.5 nM.

Turning to “GUGUGCAGAGGAUAUACAUAGGAAUAUAAUAUAAUAUAAUUACAUGAGGAUCACCCAUGUAGAAGGCUGAGUGU [Excluse me!! 18 - Jieux - Exclusion 2] (puzzle: Exclusion 2)”, the “apparent KD of MS2 coat protein” value under setting [3] is 24.3 nM.

As for “ACAGCGUGAGGAUAUACAUGAGGAUCACCCAUGUAUGGCAGGUUAUCCUGUCGUAAGUGUAGAAGGCACGCUGU [Exclusion 3 - Oddities v.4 ( A small slide from ms2 to fmn)] (puzzle: Exclusion 3)”, under setting [3], the “apparent KD of MS2 coat protein” value was 18.8 nM.

“UUAUAAAGUGUGAGGAUAUGCUGGUCGAUAGAUCAGCAGAAGGCACAUGAGGAUCACCCAUGUAAUAUAUUUUU [Mat - Exclusion 4 - JL Mod - D44] (puzzle: Brourd's mod of Exclusion 4)”: under setting [3], the “apparent KD of MS2 coat protein” value turned out to be 45.1 nM.

With “UAUAAGCUAGGAUAUCGCUGAGUAAACAUGAGGAUCACCCAUGUGGACCAUGAUUGCCACCGAGAAGGAGCGGGAA [Aonat] (puzzle: Exclusion 5)”, the “apparent KD of MS2 coat protein” value was 119 nM under setting [2], 53.7 nM under setting [3] and 56.8 nM under setting [4].
